We go through 5 molecules from patent US8318473B2, “Biofuel production” (Bio Architecture Lab, Inc., priority 2007, dated 2012).

A short description of assay [1]: TBA assay of culture media for secreted alginate lyase. The settings on record: media of overnight BL21 culture, LB+2% alginate+0.1 mM IPTG; 1:1 with 0.8% TBA, 10 min at 99 degrees Celsius; FIG. 47.
Assay [2] in a line: Kinetic testing of oxidation and reduction reactions on various substrates using 2ADH-16. The format is biochemical. The conditions noted are these: 0.04 mg/mL enzyme, 0.25 mg/mL cofactor, 20 mM Tris HCl pH 6.5(red) or 9.0(ox), 25 C; FIG. 35, 36. The procedure: Similar to above, kinetic testing for both oxidation and reduction reactions was performed on various substrates using 2ADH-16. The conditions for these studies were as follows: 0.04 mg/mL enzyme, 0.25 mg/mL cofactor, 20 mM Tris HCl Buffer pH 6.5(red) or 9.0(ox), T=25 C, 100 uL total volume was used.

The conditions of assay [3]: background statement, no test described; cited from earlier work.
The nature of assay [4]: In vitro pyruvate formation from alginate with purified enzymes. The settings on record: ~5 ug purified enzyme with Atu3025, UxuA, KdgK, KdgA; 1% alginate or ~0.5% mannuronate; over night; FIG. 6B, 6C.
Method: The reaction mixture contained 1% alginate or ˜0.5% mannuronate, ˜5 ug of purified Atu3026 (ADH12) or Atu3027 (ADH11), and ˜5 ug of purified oligoalginate lyase (Atu3025), UxuA, KdgK, and KdgA, 2 mM of ATP, and 0.6 mM of NADPH in 20 mM Tris-HCl pH7.0. The reaction was carried out over night and the pyruvate formation was monitored by the pyruvate assay kit (BioVision, Inc).

B1: Vs24254: putative Vibrio splendidus protein similar to an alginate lyase, SEQ ID NO: 32; functional external alginate lyase (protein, listed as Vibrio splendidus)
chain: MNKPIFVVVLASLTYGCGGSSSSDSSDPSDTNNSGASYGVVAPYDIAKYQNILSSSDLQVSDPNGEEGNKTSEVKDGNFDGYVSDYFYADEETENLIFKMANYKMRSEVREGENFDINEAGVRRSLHAEISLPDIEHVMASSPADHDEVTVLQIHNKGTDESGTGYIPHPLLRVVWEQERDGLTGHYWAVMKNNAIDCSSAADSSDCYATSYNRYDLGEADLDNFTKFDLSVYENTLSIKVNDEVKVDEDITYWQHLLSYFKAGIYNQFENGEATAHFQALRYTTTQVNGSNDWDINDWKLTIPASKDTWYGSGGDSAAELEPERCESSKDLLANDSDVYDSDIGLSYFNTDEGRVHFRADMGYGTSTENSSYIRSELRELYQSSVQPDCSTSDEDTSWYLDDTRTNATSHELTASLRIEDYPNINNQDPKVVLGQIHGWKINQALVKLLWEGESKPVRVILNSDFERNNQDCNHCDPFSVELGTYSASEEWRYTIRANQDGIYLATHDLDGTNTVSHLIPWGQDYTDKDGDTVSLTSDWTSTDIAFYFKAGIYPQFKPDSDYAGEVFDVSFSSLRAEHN
As for B1, the “TBA assay result (cleavage of alginate polymer in growth medium)” value in assay [1] is reported as “positive TBA assay result of pink color”.

B2: 2ADH-16: secondary alcohol dehydrogenase isolated from Klebsiella pneumoniae subsp. pneumoniae MGH 78578, SEQ ID NO: 138 (protein)
chain: MTAFHNKSVLVLGGSRGIGAAIVRRFVADGASVVFSYSGSPEAAERLAAETGSTAVQADSADRDAVISLVRDSGPLDVLVVNAGIALFGDALEQDSDAIDRLFHINIHAPYHASVEAARRMPEGGRIIVIGSVNGDRMPLPGMAAYALSKSALQGLARGLARDFGPRGITVNVVQPGPIDTDANPENGPMKELMHSFMAIKRHGRPEEVAGMVAWLAGPEASFVTGAMHTIDGAFGA
modifications: Klebsiella pneumoniae subsp. pneumoniae MGH78578
For the molecule B2, in assay [2], the “oxidation and reduction of various substrates” value is “capable of catalyzing both the oxidation and reduction of a wide variety of substrates”.

B3: BAL: benzaldehyde lyase (BAL) from Pseudomoas fluorescens, ThDP-dependent C—C ligase, SEQ ID NOS: 143-144 (protein, listed as Pseudomonas fluorescens)
chain: MAMITGGELVVRTLIKAGVEHLFGLHGAHIDTIFQACLDHDVPIIDTRHEAAAGHAAEGYARAGAKLGVAGHGGRGIYQCGHAHCQRLAGSQGRCIPHPGSGALRDDETNTLQAGIDQVAMAAPITKWAHRVMATEHIPRLVMQAIRAALSAPRGPVLLDLPWDILMNQIDEDSVIIPDLVLSAHGARPDPADLDQALALLRKAERPVIVLGSEASRTARKTALSAFVAATGVPVFADYEGLSMLSGLPDAMRGGLVQNLYSFAKADAAPDLVLMLGARFGLNTGHGSGQLIPHSAQVIQVDPDACELGRLQGIALGIVADVGGTIEALAQATAQDAAWPDRGDWCAKVTDLAQERYASIAAKSSSEHALHPFHASQVIAKHVDAGVTVVADGALTYLWLSEVMSRVKPGGFLCHGYLGSMGVGFGTALGAQVADLEAGRRTILVTGDGSVGYSIGEFDTLVRKQLPLIVIIMNNQSWGATLHFQQLAVGPNRVTGTRLENGSYHGVAAAFGADGYHVDSVESFSAALAQALAHNRPACINVAVALDPIPPEELILIGMDPFA
As to B3, the “rate of benzoin formation from two benzaldehyde molecules” value in assay [3] is listed as 320 μmol (benzoin) mg (protein)^−1 min^−1.

B4: Atu3027: alcohol dehydrogenase isolated from Agrobacterium tumefaciens C58, polypeptide SEQ ID NO: 90 (protein)
chain: MRSELPEGFFGPREWARLNAVADIIPGFPHTDFDTANGAEALAEADILLAAWGTPSLTRERLSRAPRLKMLAYAASSVRMVAPAEFWETSDILVTTAASAMAVPVAEFTYAAIIMCGKDVFRLRDEHRTERGTGVFGSRRGRSLPYLGNHARKVGIVGASRIGRLVMEMLARGTFEIAVYDPFLSAEEAASLGAKKAELDELLAWSDVVSLHAPILPETHHMIGARELALMADHAIFINTARGWLVDHDALLTEAISGRLRILIDTPEPEPLPTDSPFYDLPNVVLTPHIAGALGNELRALSDLAITEIERFVAGLAPLHPVHKQDMERMA
modifications: Agrobacterium tumefaciens C58
On to B4, for which, in assay [4], the “DEHU hydrogenase and mannuronate hydrogenase reactions in pyruvate formation from alginate” value was “capable of catalyzing both DEHU hydrogenase and mannuronate hydrogenase reactions”.

B5: Vs24259: putative Vibrio splendidus protein similar to an alginate lyase, SEQ ID NO: 34; negative control in TBA assay (protein, listed as Vibrio splendidus)
chain: MKQITLKTLLASSILLAVGCASTSTPTADFPNNKETGEALLTPVAVSASSHDGNGPDRLVDQDLTTRWSSAGDGEWATLDYGSVQEFDAVQASFSKGNQRQSKFDIQVSVDGESWTTVLENQLSSGKAIGLERFQFEPVVQARYVRYVGHGNTKNGWNSVTGLAAVNCSINACPASHIITSDVVAAEAVIIAEMKAAEKARKDARKDLRSGNFGVAAVYPCETTVECDTRSALPVPTGLPATPVAGNSPSENFDMTHWYLSQPFDHDKNGKPDDVSEWNLANGYQHPEIFYTADDGGLVFKAYVKGVRTSKNTKYARTELREMMRRGDQSISTKGVNKNNWVFSSAPESDLESAAGIDGVLEATLKIDHATTTGNANEVGRFIIGQIHDQNDEPIRLYYRKLPNQETGAVYFAHESQDATKEDFYPLVGDMTAEVGDDGIALGEVFSYRIDVKGNTMTVTLIREGKDDVVQVVDMSNSGYDAGGKYMYFKAGVYNQNISGDLDDYSQATFYQLDVSHDQYKK
B5: the “TBA assay result (cleavage of alginate polymer in growth medium)” value in assay [1] is given as “little or no cleavage of the alginate polymer has occurred”.
